Source: publication PMC10504544, “1-deoxy-D-xylulose-5-phosphate synthase from Pseudomonas aeruginosa and Klebsiella pneumoniae reveals conformational changes upon cofactor binding” (The Journal of Biological Chemistry, 2023)

What was measured:
[1] = substrate: CC(=O)C(=O)O; test: steady-state kinetics (Km), IspC-coupled assay; assay type: biochemical, Pseudomonas aeruginosa; settings: ThDP, Mg2+
[2] = substrate: O=CC(O)COP(=O)(O)O; test: steady-state kinetics (Km), IspC-coupled assay; assay type: biochemical, Pseudomonas aeruginosa; settings: ThDP, Mg2+

B1: 1-deoxy-D-xylulose-5-phosphate synthase (paDXPS) (Pseudomonas aeruginosa PAO1) (protein)
chain: MPKTLHEIPRERPATPLLDRASSPAELRRLGEADLETLADELRQYLLYTVGQTGGHFGAGLGVVELTIALHYVFDTPDDRLVWDVGHQAYPHKILTERRELMGTLRQKNGLAAFPRRAESEYDTFGVGHSSTSISAALGMAIAARLQGKERKSVAVIGDGALTAGMAFEALNHASEVDADMLVILNDNDMSISHNVGGLSNYLAKILSSRTYSSMREGSKKVLSRLPGAWEIARRTEEYAKGMLVPGTLFEELGWNYIGPIDGHDLPTLVATLRNMRDMKGPQFLHVVTKKGKGFAPAELDPIGYHAITKLEAPGSAPKKTGGPKYSSVFGQWLCDMAAQDARLLGITPAMKEGSDLVAFSERYPERYFDVAIAEQHAVTLAAGMACEGMKPVVAIYSTFLQRAYDQLIHDVAVQHLDVLFAIDRAGLVGEDGPTHAGSFDISYLRCIPGMLVMTPSDEDELRKLLTTGYLFDGPAAVRYPRGSGPNHPIDPDLQPVEIGKGVVRRRGGRVALLVFGVQLAEAMKVAESLDATVVDMRFVKPLDEALVRELAGSHELLVTIEENAVMGGAGSAVGEFLASEGLEVPLLQLGLPDYYVEHAKPSEMLAECGLDAAGIEKAVRQRLDRQ
With B1 the Km [1] was 184 ± 25 µM and the Km [2] was 357 ± 77 µM.
